Measured values taken from PMC7614784, “Structure and function of the RAD51B-RAD51C-RAD51D-XRCC2 tumour suppressor” (Nature, 2023).

Target: T1, B(AF647)CDX2 (Homo sapiens, UniProt O15315;O43502;O75771;O43543 1-345+=GGGSGGGDSLEFIASKLA;1-376;1-328;1-280, internal_change)
T1 sequence 1: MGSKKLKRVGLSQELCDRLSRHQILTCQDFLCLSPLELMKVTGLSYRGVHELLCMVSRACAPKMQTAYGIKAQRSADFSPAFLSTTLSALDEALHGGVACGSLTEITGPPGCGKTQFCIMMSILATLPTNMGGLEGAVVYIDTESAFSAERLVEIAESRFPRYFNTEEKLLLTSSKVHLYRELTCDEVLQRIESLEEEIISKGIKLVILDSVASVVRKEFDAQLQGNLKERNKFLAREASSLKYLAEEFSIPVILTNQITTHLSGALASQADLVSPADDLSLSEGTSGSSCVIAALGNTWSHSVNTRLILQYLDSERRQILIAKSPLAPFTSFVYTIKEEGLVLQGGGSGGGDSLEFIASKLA
T1 sequence 2: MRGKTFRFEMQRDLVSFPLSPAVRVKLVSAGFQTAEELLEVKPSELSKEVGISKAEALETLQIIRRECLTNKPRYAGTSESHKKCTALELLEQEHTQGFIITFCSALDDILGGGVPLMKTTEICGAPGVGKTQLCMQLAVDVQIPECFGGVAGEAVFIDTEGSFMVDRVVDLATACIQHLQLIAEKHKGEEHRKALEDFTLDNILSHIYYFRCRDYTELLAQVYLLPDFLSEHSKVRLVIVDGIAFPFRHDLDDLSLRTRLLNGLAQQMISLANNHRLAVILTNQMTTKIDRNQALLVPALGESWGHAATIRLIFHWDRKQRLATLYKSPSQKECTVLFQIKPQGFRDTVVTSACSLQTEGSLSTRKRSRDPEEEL
T1 sequence 3: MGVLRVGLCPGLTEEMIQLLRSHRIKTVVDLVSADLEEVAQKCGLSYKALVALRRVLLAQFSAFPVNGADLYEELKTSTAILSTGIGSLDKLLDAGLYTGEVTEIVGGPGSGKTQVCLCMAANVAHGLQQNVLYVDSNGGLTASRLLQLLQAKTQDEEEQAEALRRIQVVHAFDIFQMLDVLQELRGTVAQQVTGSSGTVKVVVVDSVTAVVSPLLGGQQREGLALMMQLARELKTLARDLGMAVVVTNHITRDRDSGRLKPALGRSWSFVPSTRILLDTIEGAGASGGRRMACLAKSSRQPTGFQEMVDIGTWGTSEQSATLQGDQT
T1 sequence 4: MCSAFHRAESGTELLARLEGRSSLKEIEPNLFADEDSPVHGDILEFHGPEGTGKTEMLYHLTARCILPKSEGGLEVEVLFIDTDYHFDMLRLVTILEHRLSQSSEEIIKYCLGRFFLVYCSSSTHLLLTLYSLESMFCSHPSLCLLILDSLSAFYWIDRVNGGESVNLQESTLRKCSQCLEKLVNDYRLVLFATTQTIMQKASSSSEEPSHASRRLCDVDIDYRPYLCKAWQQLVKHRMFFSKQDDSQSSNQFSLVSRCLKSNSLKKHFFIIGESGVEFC
Test: bulk FRET; high FRET; RAD51B near 3' end; FA: protein in 25 mM HEPES pH 7.5, 10% glycerol, 2.5 mM MgCl2, 0.25 mM TCEP, 150 mM NaCl mixed 1:1 with oligo in HMT buffer, 50 mM NaCl (final ~100 mM NaCl, 5%)
Details: protein: recombinant; TwinStrep-TEV on XRCC2 not cleaved; copies: 1;1;1;1; label: 3'-Cy3

TATCGAATCCGTCTA (ssDNA) [dN15nt-Cy3-3']: binds.
